Measured values as given in the DeepSol protein solubility set.

Assay: soluble on expression in E. coli; label from the status in PepcDB or PDB records

Sequence | soluble on expression in E. coli
MSLKENKYDDKHFFEQYSQMPRSKEGLKAAGEWHELKKMLPDFNQKTVLDLGCGFGWHCIYAAEHGAKKVLGIDLSERMLTEAKRKTTSPVVCYEQKAIEDIAIEPDAYNVVLSSLALHYIASFDDICKKVYINLKSSGSFIFSVEHPVFTADGRQDWYTDETGNKLHWPVDRYFNESMRTSHFLGEDVQKYHRTVTTYIQTLLKNGFQINSVIEPEPAPELKDLPEMQDEYRRPMMLLISATKQEGHHHHHH | soluble
VSAPTKPHSPTFKPEPHSAANEPKHPAARPKHVALQQLTGAQAVIRSLEELGVDVIFGIPGGAVLPVYDPLFDSKKLRHVLVRHEQGAGHAASGYAHVTGRVGVCMATSGPGATNLVTPLADAQMDSIPVVAITGQVGRGLIGTDAFQEADISGITMPITKHNFLVRSGDDIPRVLAEAFHIAASGRPGAVLVDIPKDVLQGQCTFSWPPRMELPGYKPNTKPHSRQVREAAKLIAAARKPVLYVGGGVIRGEATEQLRELAELTGIPVVTTLMARGAFPDSHRQNLGMPGMHGTVAAVAALQRSDLLIALGTRFDDRVTGKLDSFAPEAKVIHADIDPAEIGKNRHADVPIVGDVKAVITELIAMLRHHHIPGTIEMADWWAYLNGVRKTYPLSYGPQSDGSLSPEYVIEKLGEIAGPDAVFVAGVGQHQMWAAQFIRYEKPRSWLNSGGLGTMGFAIPAAMGAKIALPGTEVWAIDGDGCFQMTNQELATCAVEGIPVKVALINNGNLGMVRQWQSLFYAERYSQTDLATHSHRIPDFVKLAEALGCVGLRCEREEDVVDVINQARAINDCPVVIDFIVGADAQVWPMVAAGTSNDEIQAARGIRPLFDDITEGHA | not soluble
MKVDVEVLRNFEERLNPAKPENIKIIGYGEISTVFELPELPGIALKRIPNFKSVEQVKRYIEVYFEYIELLEGAGLRVPDSDATFVERRDGKTVLYIAQKMVGNVGNKVIQTAKADEAEEVFGRVLAEMKKVWDFNAERREEGLEIGIDGQISNWAIMEEIYYFDTSTPMIRKNGIHQLDTEVFLQACPPGIRILLKKIFLQDILDRYFDFRKVVVDMIANLYKEGREDLIPIAINLANEFFKLNGYDFEAITAKEVEKYYKEDAFIWSLYLNLRKVHRFILTKALFGRYEYILPGKIRR | not soluble
MSEFEGWIKWLEPVFLLWKPEDPGYERPAYRDWTKEEDEPKYSPEKELALLDKQILASDGFDIDFTHFRCVFNYHLAYLDSHEFVDEPETTRDLLERLSRKALDDYNQESVVKANFHFCCAIMFLITFEVVDPYDNLIKLFQTRVRHAEDIVTEYVFCRPKPNQGVECIGVKNNDGKDVQTNVKEQEIPCMYGWFLRVITITFTLQIGVGASICHKE | soluble
GMPQTLKPDTPAGTPAAGAVAFRRQVLPQDALLVRRVVESTGFFTPEEADVAQELVDEHLMHGAACGYHFVFATEDDDMAGYACYGPTPATEGTYDLYWIAVAPHRQHSGLGRALLAEVVHDVRLTGGRLLFAETSGIRKYAPTRRFYERAGFSAEAVLKAFYRAGDDKIIYRLEVA | soluble
VSEEELKLILAGAEESGAIEPQEEEMIHSILELEETPVREIMTPRVEMVAIEDEATLEDLLALYREHRYSRVPVYRESVDHIVGVAYVQDLLTYYCEEDLKAFKVASIAHPPYFVPENMDAWSLLKELRRRKVHMAIVVDEFGGTAGLVTLEDVIEEIVGEI | not soluble
MTKTQLVCDKNQLNWGLKAAKAIAGKSPYDVVQMRVSPDRDYLYICAVNAEATLVAKVELLVANISSEEDEIITIDKAKIPALILATAETGKKSEDSRPMAGICIRGKEVDFTDENGAGRGVDLTTIHRNDSAEIGDPVRTIIRVKQ | not soluble
MDGAQPKTNFFERLIARLAREPDSAEDVLNLLRQAHEQEVFDADTLLRLEKVLDFSDLEVRDAMITRSRMNVLKENDSIERITAYVIDTAHSRFPVIGEDKDEVLGILHAKDLLKYMFNPEQFHLKSILRPAVFVPEGKSLTALLKEFREQRNHMAIVIDEYGGTSGLVTFEDIIEQIVGEIEDEFDEDDSADNIHAVSSERWRIHAATEIEDINTFFGTEYSSEEADTIGGLVIQELGHLPVRGEKVLIGGLQFTVARADNRRLHTLMATRVK | not soluble
PAGPFTRALWEASGDIIAGINSSDFITMLGDGTLRRPEFDFYIDQDAQYLAQYSRALARLSSIAPDSHAQIEWAQSAAECLVVEAELHRSYMAGKEVSAPSHITMAYTDFLIARTYTEDYVCGVAAVLPCYWLYAEIGLMLAEQNHDEHPYKDWLNTYSGEEFIAGTRAAIARLEKALENAGAEQRVDAARAFLSASVHEREFFDQATRHG | not soluble
